This passage reports Kd results from article PMC5360572 (EBioMedicine, 2017).

Experiment in all cases: SPR; BIAcore 3000, 25 °C; PD-L1-Ig or PD-L2-Ig immobilized on CM5 chip by amine coupling; soluble monomeric PD-1 or mutants (0.01–100 μM) injected at 20 μl/min; equilibrium Kd, 1:1 Langmuir model
Conditions in all cases: both partners purified
In general terms: In SPR one partner is held on a chip, and binding of the other changes the refractive index at the surface.

The target of assay [1] is T1, human PD-L1 Ig fusion protein (human, UniProt Q9NZQ7 19-238).
T1 construct: characterized by SEC prior to use; detected on cells with anti-human IgG Fcγ-specific F(ab')2; also called huPD-L1; B7-H1; source: bought: R&D Systems
T1 sequence (Q9NZQ7 19-238): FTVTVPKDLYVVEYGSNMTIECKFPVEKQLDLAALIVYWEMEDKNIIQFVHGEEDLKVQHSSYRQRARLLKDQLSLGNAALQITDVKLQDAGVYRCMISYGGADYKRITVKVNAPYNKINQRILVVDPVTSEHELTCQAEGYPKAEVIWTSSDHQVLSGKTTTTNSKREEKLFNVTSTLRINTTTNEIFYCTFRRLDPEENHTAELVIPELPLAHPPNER

For assay [2], the target named is T2, human PD-L2 Ig fusion protein (human, UniProt Q9BQ51 20-220).
T2 construct: characterized by SEC prior to use; also called huPD-L2; B7-DC; source: bought: R&D Systems
T2 sequence (looked up): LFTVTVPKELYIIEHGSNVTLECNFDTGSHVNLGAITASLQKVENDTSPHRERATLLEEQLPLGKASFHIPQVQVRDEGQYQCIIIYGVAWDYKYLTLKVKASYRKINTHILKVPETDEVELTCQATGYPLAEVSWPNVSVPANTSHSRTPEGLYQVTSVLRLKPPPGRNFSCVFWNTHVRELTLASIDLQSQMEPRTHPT

The target of assay [3] is T3, mouse PD-L1 Ig fusion protein (mouse, UniProt Q9EP73 19-239).
T3 construct: mouse PD-L1 part of a bought Ig fusion protein; also called mPD-L1; murine PD-L1-Ig; source: bought: R&D Systems
T3 sequence (Q9EP73 19-239): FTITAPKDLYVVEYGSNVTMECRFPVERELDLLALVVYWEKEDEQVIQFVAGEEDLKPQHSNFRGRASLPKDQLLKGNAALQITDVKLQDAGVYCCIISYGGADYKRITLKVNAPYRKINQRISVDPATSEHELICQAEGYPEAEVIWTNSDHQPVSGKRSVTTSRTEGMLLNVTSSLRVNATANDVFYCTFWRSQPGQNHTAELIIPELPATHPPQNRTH

Assay [4] deals with T4, mouse PD-L2 Ig fusion protein (mouse, UniProt Q9WUL5 20-221).
T4 construct: mouse PD-L2 part of a bought Ig fusion protein; also called mPD-L2; murine PD-L2-Ig; source: bought: R&D Systems
T4 sequence (looked up): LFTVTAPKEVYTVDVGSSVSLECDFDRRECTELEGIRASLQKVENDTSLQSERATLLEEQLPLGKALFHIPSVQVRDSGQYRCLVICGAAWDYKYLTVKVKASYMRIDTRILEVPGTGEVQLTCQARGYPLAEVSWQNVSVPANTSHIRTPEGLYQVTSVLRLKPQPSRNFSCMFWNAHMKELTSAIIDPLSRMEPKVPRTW

B1: mouse PD-1 A132L mutant (soluble, monomeric) (domain or fragment)
chain: SLTFYPAWLTVSEGANATFTCSLSNWSEDLMLNWNRLSPSNQTEKQAAFCNGLSQPVQDARFQIIQLPNRHDFHMNILDTRRNDSGIYLCGAISLHPKLKIEESPGAELVVTERILE
notes: the same molecule is used for the SPR analyte and for the crystallised complexes (PDB 3SBW, 3RNK, 3BP6); also called mA132L; mouse analog of A132L
With B1, the dissociation constant Kd – broadly, the concentration at which binding is half-saturated – stood at 480 nM in assay [1], 1180 nM in assay [2], 2780 nM in assay [3] and 470 nM in assay [4].
